The target of experiment [1] is T1, IL13Rα2 glycine-scan mutant EP3 (human, UniProt Q14627 27-343).
T1 construct: The changed residues (63-65) are inferred in the same way as for EP1
T1 chain: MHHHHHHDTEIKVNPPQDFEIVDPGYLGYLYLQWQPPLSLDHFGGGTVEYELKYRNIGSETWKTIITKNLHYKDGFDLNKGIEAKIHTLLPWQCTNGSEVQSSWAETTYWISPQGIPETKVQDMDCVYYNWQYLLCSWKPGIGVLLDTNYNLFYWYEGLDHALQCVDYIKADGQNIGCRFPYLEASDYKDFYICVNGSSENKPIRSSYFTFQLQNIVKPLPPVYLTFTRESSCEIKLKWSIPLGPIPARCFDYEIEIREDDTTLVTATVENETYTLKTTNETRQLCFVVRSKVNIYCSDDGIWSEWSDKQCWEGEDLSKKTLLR
The experiment is described as follows: Western blot, glycine scan mutants. In general terms: Immunoblotting shows a protein as a band on a membrane.

Experiment [2] has as its target T2, IL13Rα2 glycine-scan mutant EP1 (human, UniProt Q14627 27-343, limits assumed).
T2 chain: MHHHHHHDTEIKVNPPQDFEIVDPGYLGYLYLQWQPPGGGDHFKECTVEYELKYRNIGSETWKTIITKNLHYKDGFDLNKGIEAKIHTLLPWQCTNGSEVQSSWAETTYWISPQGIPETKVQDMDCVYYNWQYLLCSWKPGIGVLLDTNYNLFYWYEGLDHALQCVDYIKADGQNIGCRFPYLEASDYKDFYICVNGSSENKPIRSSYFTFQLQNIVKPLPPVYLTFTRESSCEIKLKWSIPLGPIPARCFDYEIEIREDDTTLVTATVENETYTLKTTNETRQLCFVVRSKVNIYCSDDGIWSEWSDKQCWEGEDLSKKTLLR
The experiment is described as follows: Western blot, glycine scan mutants.

The target of experiment [3] is T3, IL13Rα2 glycine-scan mutant EP2 (human, UniProt Q14627 27-343).
T3 construct: The changed residues (60-62) are inferred in the same way as for EP1
T3 chain: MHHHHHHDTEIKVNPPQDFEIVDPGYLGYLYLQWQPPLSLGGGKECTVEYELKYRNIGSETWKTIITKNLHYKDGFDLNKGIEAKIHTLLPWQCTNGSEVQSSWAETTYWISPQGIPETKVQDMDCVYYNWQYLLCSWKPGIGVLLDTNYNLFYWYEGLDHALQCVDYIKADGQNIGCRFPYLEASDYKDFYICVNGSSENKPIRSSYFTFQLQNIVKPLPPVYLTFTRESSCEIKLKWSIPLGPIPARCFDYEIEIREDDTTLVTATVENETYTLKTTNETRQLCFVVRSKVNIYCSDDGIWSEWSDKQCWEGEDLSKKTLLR
Description: Western blot, glycine scan mutants.

The target of experiment [4] is T4, IL13Rα2 antigen with His tag, expressed from pMAL in E. coli (IL13Rα2-HIS) (human) (UniProt Q14627).
T4 sequence: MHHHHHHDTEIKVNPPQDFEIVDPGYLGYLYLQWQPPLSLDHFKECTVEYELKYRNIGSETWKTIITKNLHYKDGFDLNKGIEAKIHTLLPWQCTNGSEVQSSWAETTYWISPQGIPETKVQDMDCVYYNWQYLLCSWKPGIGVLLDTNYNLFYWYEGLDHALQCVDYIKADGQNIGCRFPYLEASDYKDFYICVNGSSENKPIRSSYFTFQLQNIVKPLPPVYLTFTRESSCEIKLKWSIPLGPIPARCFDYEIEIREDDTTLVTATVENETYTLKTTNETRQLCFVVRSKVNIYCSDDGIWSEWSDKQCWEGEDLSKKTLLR
The experiment is described as follows: indirect ELISA, antigen coated at 3 μg/ml, serial dilutions of the antibody. For orientation: ELISA stands for enzyme-linked immunosorbent assay.

In experiment [5] the target is T5, IL13Rα2 deletion mutant D1-1c (15 residues …, 57-71, deleted) (human, UniProt Q14627 27-343).
T5 construct: also called 突变的IL13Rα2蛋白的D1-1c
T5 sequence: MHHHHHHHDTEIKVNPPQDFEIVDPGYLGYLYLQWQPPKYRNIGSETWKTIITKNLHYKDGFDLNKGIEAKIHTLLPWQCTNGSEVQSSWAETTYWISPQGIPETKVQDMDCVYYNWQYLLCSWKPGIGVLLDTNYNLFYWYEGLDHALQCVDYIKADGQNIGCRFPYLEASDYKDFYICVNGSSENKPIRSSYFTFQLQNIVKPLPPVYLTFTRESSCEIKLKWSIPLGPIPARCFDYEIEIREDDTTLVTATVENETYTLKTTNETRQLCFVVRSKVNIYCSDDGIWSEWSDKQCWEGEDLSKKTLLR
The experiment is described as follows: Western blot.

Experiment [6] addresses T6, IL13Rα2 expressed in lung cancer cells A549 and H460 (fixed, permeabilised cells) (UniProt Q14627 27-380, limits assumed).
T6 construct: whole, on cells; A549 and H460 are human lung cancer lines; also called A549和H460细胞中的IL13Rα2
T6 sequence (looked up): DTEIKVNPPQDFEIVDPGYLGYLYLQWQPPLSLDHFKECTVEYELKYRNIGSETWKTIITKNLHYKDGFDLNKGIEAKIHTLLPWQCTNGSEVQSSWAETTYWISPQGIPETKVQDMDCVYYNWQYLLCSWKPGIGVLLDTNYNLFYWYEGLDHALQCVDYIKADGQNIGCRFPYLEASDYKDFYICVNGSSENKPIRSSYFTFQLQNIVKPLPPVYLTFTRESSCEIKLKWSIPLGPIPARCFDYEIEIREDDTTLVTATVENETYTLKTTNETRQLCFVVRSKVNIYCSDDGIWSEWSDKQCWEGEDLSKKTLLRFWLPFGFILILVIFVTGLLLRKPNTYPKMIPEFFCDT
Description: immunofluorescence on fixed, permeabilised cells.

Experiment [7] deals with T7, IL13Rα2 antigen with His tag, expressed from pMAL in E. coli (IL13Rα2-HIS) (human, UniProt Q14627 27-343).
T7 construct: Purified on Ni-NTA; also called IL13Rα2抗原; pMAL-IL13Rα2
T7 sequence: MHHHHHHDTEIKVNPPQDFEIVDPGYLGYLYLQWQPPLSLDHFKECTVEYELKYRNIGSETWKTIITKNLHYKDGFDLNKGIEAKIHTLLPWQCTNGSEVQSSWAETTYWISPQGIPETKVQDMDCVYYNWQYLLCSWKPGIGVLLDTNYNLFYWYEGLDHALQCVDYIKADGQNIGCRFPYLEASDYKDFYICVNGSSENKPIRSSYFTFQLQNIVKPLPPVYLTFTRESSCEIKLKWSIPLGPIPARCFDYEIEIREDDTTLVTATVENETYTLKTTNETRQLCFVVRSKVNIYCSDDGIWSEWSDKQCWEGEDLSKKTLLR
Description: Western blot (Fig. 24).

B1: anti-IL13Rα2 monoclonal antibody mAb15D8 (mouse, from hybridoma) (antibody, mouse IgG1, kappa, V domains shown)
VH: QVTLKESGPGILQPSQTLSLTCSFSGFSLSPSGMGVSWIRQPSGKGLEWLAHIYWDDDKLYNPSLKSRLTISKDTSSNQVFLKITSVDTADTATYYCARRGLRLRAMDYWGQGTSVTVSS
VL: DIVLTQSPASLAVSLGQRATISCRASESVDSYGNSFMHWYQQKPGQPPKLLIYRTSNLESGIPARFSGSGSRTDFTLTINPVEADDVATYYCQQSNEDPFTFGSGTKLEIKR
notes: Purified on Protein G; also called m15D8; 单克隆抗体15D8
Take B1: the binding result in experiment [1] was “no binding”; in experiment [2], “no binding”; in experiment [3] it was “no binding”; in experiment [5], “no binding”; in experiment [6], “binds”. The molecule also displayed a 效价 (titer) (fold dilution) in experiment [4] of over 10000.

B2: recombinantly expressed monoclonal antibody mAb15D8 (293F cells transiently transfected with p15D8MusE) (antibody, mouse IgG1, kappa, V domains shown)
VH: QVTLKESGPGILQPSQTLSLTCSFSGFSLSPSGMGVSWIRQPSGKGLEWLAHIYWDDDKLYNPSLKSRLTISKDTSSNQVFLKITSVDTADTATYYCARRGLRLRAMDYWGQGTSVTVSS
VL: DIVLTQSPASLAVSLGQRATISCRASESVDSYGNSFMHWYQQKPGQPPKLLIYRTSNLESGIPARFSGSGSRTDFTLTINPVEADDVATYYCQQSNEDPFTFGSGTKLEIKR
notes: also called 重组表达单克隆抗体mAb15D8; 重组表达抗体
Consider B2, for which, in experiment [7], the binding result is recorded as “binds”.
